Reference: patent US11008402 (dated 2021)
Values joined by “and” are separate entries in the source; they are usually repeats but may differ in a detail not shown here. Equal values may be shown once. Read-outs that look alike come from different tables or passages of the source.

Experiments:
HER3-His ECD [1] = target: HER3-His ECD (human); experiment: ELISA
HER3 (cell surface) [2] = target: HER3 (cell surface) (human); experiment: FACS, A375
HER3-Fc ECD [3] = target: HER3-Fc ECD (human); experiment: ELISA
CD3 (Jurkat cells) = CD3 (Jurkat cells) (human, UniProt P07766); experiment: FACS, Jurkat
Chain of CD3 (Jurkat cells) (P07766 23-207): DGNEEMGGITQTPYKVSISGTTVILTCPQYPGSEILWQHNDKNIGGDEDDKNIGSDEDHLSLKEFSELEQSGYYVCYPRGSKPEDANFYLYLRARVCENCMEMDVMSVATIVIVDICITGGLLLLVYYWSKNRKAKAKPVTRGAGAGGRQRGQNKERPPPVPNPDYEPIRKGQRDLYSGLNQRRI

HER3-Fc ECD [4] = target: HER3-Fc ECD (human); experiment: ELISA; remark: listed apart in the source
HER3 (cell surface) [5] = target: HER3 (cell surface) (human); experiment: FACS, MCF-7
HER3 (cell surface) [6] = target: HER3 (cell surface) (human); experiment: FACS, MCF-7 (Example 22)
EGFR ECD = EGFR ECD (human, UniProt P00533); experiment: ELISA
EGFR (cell surface) = EGFR (cell surface) (human, UniProt P00533); experiment: FACS, FaDu (EGFR and HER3 positive)
HER3 (cell surface) [7] = target: HER3 (cell surface) (human); experiment: FACS, SKBR-3 (EGFR and HER3 positive)
HER3 (cell surface) [8] = target: HER3 (cell surface) (human); experiment: FACS, MCF-7; remark: listed apart in the source
HER3-His ECD [9] = target: HER3-His ECD (human); experiment: ELISA; remark: listed apart in the source
HER3-His ECD [10] = target: HER3-His ECD (human); experiment: ELISA; remark: listed apart in the source

B1: scDb 4D5x3-43-Fc, HER3 arm (antibody, V domains shown)
VH: QVQLQQSGPGLVKPSQTLSLTCAISGDSVSSNRAAWNWIRQSPSRGLEWLGRTYYRSKWYNDYAQSLKSRITINPDTPKNQFSLQLNSVTPEDTAVYYCARDGQLGLDALDIWGQGTMVTVSS
VL: QAGLTQPPAVSVAPGQTASITCGRDNIGSRSVHWYQQKPGQAPVLVVYDDSDRPAGIPERFSGSNYENTATLTISRVEAGDEADYYCQVWGITSDHVVFGGGTKLTVLG
EC50 (HER3-His ECD [1]): 1.9 nM

B2: scFv3-43-Fc-scTRAIL, HER3 arm (antibody)
chain: QVQLQQSGPGLVKPSQTLSLTCAISGDSVSSNRAAWNWIRQSPSRGLEWLGRTYYRSKWYNDYAQSLKSRITINPDTPKNQFSLQLNSVTPEDTAVYYCARDGQLGLDALDIWGQGTMVTVSSGGGGSGGGGSGGGGSQAGLTQPPAVSVAPGQTASITCGRDNIGSRSVHWYQQKPGQAPVLVVYDDSDRPAGIPERFSGSNYENTATLTISRVEAGDEADYYCQVWGITSDHVVFGGGTKLTVLG
EC50 (HER3 (cell surface) [2]): 1.19 nM
EC50 (HER3-Fc ECD [3]): 0.33 nM

B3: scDb 3-43xCD3, CD3 arm (antibody)
chain: METDTLLLWVLLLWVPGSTGQVQLQQSGPGLVKPSQTLSLTCAISGDSVSSNRAAWNWIRQSPSRGLEWLGRTYYRSKWYNDYAQSLKSRITINPDTPKNQFSLQLNSVTPEDTAVYYCARDGQLGLDALDIWGQGTMVTVSSGGGGSDIQMTQSPSSLSASVGDRVTITCRASQDIRNYLNWYQQKPGKAPKLLIYYTSRLHSGVPSRFSGSGSGTDFTFTISSLQPEDIATYYCQQGNTLPWTFGQGTKLEIKRGGGGSGGGGSGGGGSQVQLVQSGAEVKKPGSSVKVSCKASGGTFSGYTMNWVRQAPGQGLEWMGLINPYKGVSTYNGKFKDRVTITADKSTSTAYMELSSLRSEDTAVYYCARSGYYGDSDWYFDVWGQGTLVTVSSGGGGSQAGLTQPPAVSVAPGQTASITCGRDNIGSRSVHWYQQKPGQAPVLVVYDDSDRPAGIPERFSGSNYENTATLTISRVEAGDEADYYCQVWGITSDHVVFGGGTKLTVLAAAHHHHHH
EC50 (CD3 (Jurkat cells)): 2.4 nM and 3.1 nM

B4: scDb4D5x3-43-LL, HER3 arm (antibody, V domains shown)
VH: B1 VH
VL: B1 VL
EC50 (HER3-Fc ECD [4]): 0.93 nM

B5: scDb 3-43xCD3-scFv 3-43, HER3 arms (antibody, V domains shown)
VH: B1 VH
VL: B1 VL
EC50 (HER3 (cell surface) [5]): 0.0316 nM and 0.0314 nM
EC50 (HER3-Fc ECD [4]): 0.81 nM

B6: scDb 3-43xCD3, HER3 arm (antibody, V domains shown)
VH: B1 VH
VL: B1 VL
EC50 (HER3 (cell surface) [5]): 1.1 nM
EC50 (HER3 (cell surface) [6]): 1.1 nM
EC50 (HER3-Fc ECD [4]): 3.3 nM and 4.87 nM

B7: Db3-43xhu225-Ig, EGFR arm (antibody)
chain 1: EVQLVESGGGLVQPGGSLRLSCAASGFSLTNYGVHWVRQAPGKGLEWLGVIWSGGNTDYNTPFTSRFTISRDNSKNTLYLQMNSLRAEDTAVYYCARALTYYDYEFAYWGQGTTVTVSSGGGGSQAGLTQPPAVSVAPGQTASITCGRDNIGSRSVHWYQQKPGQAPVLVVYDDSDRPAGIPERFSGSNYENTATLTISRVEAGDEADYYCQVWGITSDHVVFGGGTKLTVLASTKGPSVFPLAPSSKSTSGGTAALGCLVKDYFPEPVTVSWNSGALTSGVHTFPAVLQSSGLYSLSSVVTVPSSSLGTQTYICNVNHKPSNTKVDKKVEPKSCDKTHTCPPCPAPPVAGPSVFLFPPKPKDTLMISRTPEVTCVVVDVSHEDPEVKFNWYVDGVEVHNAKTKPREEQYNSTYRVVSVLTVLHQDWLNGKEYKCKVSNKGLPSSIEKTISKAKGQPREPQVYTLPPSRDELTKNQVSLTCLVKGFYPSDIAVEWESNGQPENNYKTTPPVLDSDGSFFLYSKLTVDKSRWQQGNVFSCSVMHEALHNHYTQKSLSLSPGK
chain 2: QVQLQQSGPGLVKPSQTLSLTCAISGDSVSSNRAAWNWIRQSPSRGLEWLGRTYYRSKWYNDYAQSLKSRITINPDTPKNQFSLQLNSVTPEDTAVYYCARDGQLGLDALDIWGQGTMVTVSSGGGGSDIQLTQSPSFLSASVGDRVTITCRASQSIGTNIHWYQQKPGKAPKLLIKYASESISGVPSRFSGSGSGTEFTLTISSLQPEDFATYYCQQNNNWPTTFGAGTKLEIKRTVAAPSVFIFPPSDEQLKSGTASVVCLLNNFYPREAKVQWKVDNALQSGNSQESVTEQDSKDSTYSLSSTLTLSKADYEKHKVYACEVTHQGLSSPVTKSFNRGEC
EC50 (EGFR ECD): 0.19 nM
EC50 (EGFR (cell surface)): 0.14 nM

B8: Db3-43xhu225-Ig, HER3 arm (antibody, V domains shown)
VH: B1 VH
VL: B1 VL
EC50 (HER3 (cell surface) [7]): 0.047 nM
EC50 (HER3 (cell surface) [8]): 0.054 nM
EC50 (HER3-His ECD [9]): 0.26 nM

B9: scFv3-43-scDb3-43xhuU3-scFv3-43, CD3 arm (antibody)
chain: METDTLLLWVLLLWVPGSTGQVQLQQSGPGLVKPSQTLSLTCAISGDSVSSNRAAWNWIRQSPSRGLEWLGRTYYRSKWYNDYAQSLKSRITINPDTPKNQFSLQLNSVTPEDTAVYYCARDGQLGLDALDIWGQGTMVTVSSGGGGSDIQMTQSPSSLSASVGDRVTITCRASQDIRNYLNWYQQKPGKAPKLLIYYTSRLHSGVPSRFSGSGSGTDFTFTISSLQPEDIATYYCQQGNTLPWTFGQGTKLEIKRGGGGSGGGGSGGGGSQVQLVQSGAEVKKPGSSVKVSCKASGGTFSGYTMNWVRQAPGQGLEWMGLINPYKGVSTYNGKFKDRVTITADKSTSTAYMELSSLRSEDTAVYYCARSGYYGDSDWYFDVWGQGTLVTVSSGGGGSQAGLTQPPAVSVAPGQTASITCGRDNIGSRSVHWYQQKPGQAPVLVVYDDSDRPAGIPERFSGSNYENTATLTISRVEAGDEADYYCQVWGITSDHVVFGGGTKLTVLAAAGGSGGGGSGGGTQVQLQQSGPGLVKPSQTLSLTCAISGDSVSSNRAAWNWIRQSPSRGLEWLGRTYYRSKWYNDYAQSLKSRITINPDTPKNQFSLQLNSVTPEDTAVYYCARDGQLGLDALDIWGQGTMVTVSSGGGGSGGGGSGGGGSQAGLTQPPAVSVAPGQTASITCGRDNIGSRSVHWYQQKPGQAPVLVVYDDSDRPAGIPERFSGSNYENTATLTISRVEAGDEADYYCQVWGITSDHVVFGGGTKLTVLGSL
EC50 (CD3 (Jurkat cells)): 5.2 nM

B10: scDbhu225x3-43-Fc (GGGGS), HER3 arm (antibody, V domains shown)
VH: B1 VH
VL: B1 VL
EC50 (HER3-His ECD [1]): 0.2 nM

B11: scDb hu225x3-43-Fc, HER3 arm (antibody, V domains shown)
VH: B1 VH
VL: B1 VL
EC50 (HER3-His ECD [10]): 0.24 nM

B12: scDb 2-35x3-43-Fc, HER3 arm (antibody, V domains shown)
VH: B1 VH
VL: B1 VL
EC50 (HER3-His ECD [1]): 0.24 nM

B13: scFv3-43-scDb3-43xhuU3-scFv3-43, HER3 arms (antibody, V domains shown)
VH: B1 VH
VL: B1 VL
EC50 (HER3 (cell surface) [5]): 0.0173 nM
